Laboratory results published in patent US20230103885A1 (CRISPR THERAPEUTICS, published 2023).

Tests used:
[1] = target: T1, anti-CD19 CAR comprising the anti-CD19 scFv of SEQ ID NO:1; assay: flow cytometry on anti-CD19 CAR T cells, dilution 1:50
T1 construct: also called anti-CD19 chimeric antigen receptor; anti-CD19 CAR T cells
Description: (§1) The 29E4B5 antibodies produced using the first or the second method were compared with a reference anti-FMC63-scFv antibody (rec_mab3) for the ability to bind to the anti-CD19 CAR T cells using flow cytometry. Both methods produced 29E4B5 antibodies with higher affinity to the anti-CD19 cells than rec_mab3, showing higher CAR positive percentage even at 1:6,400 dilutions (Table 9).

[2] = target: T1, anti-CD19 CAR comprising the anti-CD19 …; assay: flow cytometry on anti-CD19 CAR T cells, dilution 1:100
Description: as §1

[3] = target: T1, anti-CD19 CAR comprising the anti-CD19 …; assay: flow cytometry on anti-CD19 CAR T cells, dilution 1:200
Description: as §1

[4] = target: T1, anti-CD19 CAR comprising the anti-CD19 …; assay: flow cytometry on anti-CD19 CAR T cells, dilution 1:400
Description: as §1

[5] = target: T1, anti-CD19 CAR comprising the anti-CD19 …; assay: flow cytometry on anti-CD19 CAR T cells, dilution 1:800
Description: as §1

[6] = target: T1, anti-CD19 CAR comprising the anti-CD19 …; assay: flow cytometry on anti-CD19 CAR T cells, dilution 1:1600
Description: as §1

[7] = target: T1, anti-CD19 CAR comprising the anti-CD19 …; assay: flow cytometry on anti-CD19 CAR T cells, dilution 1:3200
Description: as §1

[8] = target: T1, anti-CD19 CAR comprising the anti-CD19 …; assay: flow cytometry on anti-CD19 CAR T cells, dilution 1:6400
Description: as §1

B1: reference anti-FMC63-scFv antibody (rec_mab3) (antibody, V domains shown)
VH: EVKLVESGGGLVQPGGSLKLSCAASGFDFSRYWMSWVRQAPGKGLEWIGEINLDSSTINYTPSLKDKFIISRDNAKNTLYLQMSKVRSEDTALYYCARRYDAMDYWGQGTSVTVSS
VL: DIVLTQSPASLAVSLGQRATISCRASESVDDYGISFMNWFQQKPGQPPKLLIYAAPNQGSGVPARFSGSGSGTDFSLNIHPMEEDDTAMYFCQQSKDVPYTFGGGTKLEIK
notes: also called control anti-FMC63-scFv antibody
[1]
  % CAR+: 69.8%
[2]
  % CAR+: 69.4%
[3]
  % CAR+: 69.7%
[4]
  % CAR+: 68.9%
[5]
  % CAR+: 66.4%
[6]
  % CAR+: 62.2%
[7]
  % CAR+: 56.6%
[8]
  % CAR+: 49.1%

B2: 29E4B5-1 (Recombinant) (antibody, V domains shown)
VH: EVKLLQSGGGLVQPGGSLKLSCAASGIDFSRYWMSWVRRAPGKGLEWIGEINLDSSTKNYAPSLKDKFIISRDNAKNTLYLQMSKVRSEDTALYYCARNYVGMDYWGQGTSVTVSS
VL: DIVLTQSPASLAVSLGQRATISCRASKSVSSSDYTYMHWYQQKPGQPPKLLIYLASNLESGVPARFSGSGSGTDFTLNIHPVEEEDAATYYCQHSRELPPTFGGGTKLEIK
notes: also called recombinant 29E4B5 antibody
[1]
  % CAR+: 69.6%
[2]
  % CAR+: 69.3%
[3]
  % CAR+: 68.8%
[4]
  % CAR+: 69.1%
[5]
  % CAR+: 68%
[6]
  % CAR+: 65.9%
[7]
  % CAR+: 62.5%
[8]
  % CAR+: 58%
